Key:
[1] = molecular target: ED-B fibronectin antigen protein (recombinant), bound to CNBr activated sepharose 4B (UniProt P02751); assay: ED-B sepharose column, % of total radioactivity bound; Study A; maltose 10 mg/mL; day 3
[2] = molecular target: ED-B fibronectin antigen protein (recombinant), bound to CNBr activated sepharose 4B (UniProt P02751); assay: ED-B sepharose column, % of total radioactivity bound; Study B3; thioglycerol 10 mg/mL; day 3
[3] = molecular target: ED-B fibronectin antigen protein (recombinant), bound to CNBr activated sepharose 4B (UniProt P02751); assay: ED-B sepharose column, % of total radioactivity bound; Study B3; thioglycerol 10 mg/mL; day 1
[4] = molecular target: ED-B fibronectin antigen protein (recombinant), bound to CNBr activated sepharose 4B (UniProt P02751); assay: ED-B sepharose column, % of total radioactivity bound; Study A; maltose 10 mg/mL; day 7
[5] = molecular target: ED-B fibronectin antigen protein (recombinant), bound to CNBr activated sepharose 4B (UniProt P02751); assay: ED-B sepharose column, % of total radioactivity bound; Study A; sodium thiosulfate 25 mg/mL; day 3
[6] = molecular target: ED-B fibronectin antigen protein (recombinant), bound to CNBr activated sepharose 4B (UniProt P02751); assay: ED-B sepharose column, % of total radioactivity bound; Study A; maltose 25 mg/mL; day 0
[7] = molecular target: ED-B fibronectin antigen protein (recombinant), bound to CNBr activated sepharose 4B (UniProt P02751); assay: ED-B sepharose column, % of total radioactivity bound; Study B3; ascorbic acid 25 mg/mL; day 0
[8] = molecular target: ED-B fibronectin antigen protein (recombinant), bound to CNBr activated sepharose 4B (UniProt P02751); assay: ED-B sepharose column, % of total radioactivity bound; Study A; inositol 50 mg/mL; day 0
[9] = molecular target: ED-B fibronectin antigen protein (recombinant), bound to CNBr activated sepharose 4B (UniProt P02751); assay: ED-B sepharose column, % of total radioactivity bound; Study B3; inositol 10 mg/mL; day 5
[10] = molecular target: ED-B fibronectin antigen protein (recombinant), bound to CNBr activated sepharose 4B (UniProt P02751); assay: ED-B sepharose column, % of total radioactivity bound; Study A; maltose 10 mg/mL; day 1
[11] = molecular target: ED-B fibronectin antigen protein (recombinant), bound to CNBr activated sepharose 4B (UniProt P02751); assay: ED-B sepharose column, % of total radioactivity bound; Study B3; ascorbic acid 25 mg/mL; day 2
[12] = molecular target: ED-B fibronectin antigen protein (recombinant), bound to CNBr activated sepharose 4B (UniProt P02751); assay: ED-B sepharose column, % of total radioactivity bound; Study A; sodium thiosulfate 5 mg/mL; day 0
[13] = molecular target: ED-B fibronectin antigen protein (recombinant), bound to CNBr activated sepharose 4B (UniProt P02751); assay: ED-B sepharose column, % of total radioactivity bound; Study A; trolox 5 mg/mL; day 7
[14] = molecular target: ED-B fibronectin antigen protein (recombinant), bound to CNBr activated sepharose 4B (UniProt P02751); assay: ED-B sepharose column, % of total radioactivity bound; Study A; methionine 10 mg/mL; day 0
[15] = molecular target: ED-B fibronectin antigen protein (recombinant), bound to CNBr activated sepharose 4B (UniProt P02751); assay: ED-B sepharose column, % of total radioactivity bound; Study B3; inositol 10 mg/mL; day 0
[16] = molecular target: ED-B fibronectin antigen protein (recombinant), bound to CNBr activated sepharose 4B (UniProt P02751); assay: ED-B sepharose column, % of total radioactivity bound; Study A; maltose 25 mg/mL; day 7
[17] = molecular target: ED-B fibronectin antigen protein (recombinant), bound to CNBr activated sepharose 4B (UniProt P02751); assay: ED-B sepharose column, % of total radioactivity bound; Study A; maltose 25 mg/mL; day 3
[18] = molecular target: ED-B fibronectin antigen protein (recombinant), bound to CNBr activated sepharose 4B (UniProt P02751); assay: ED-B sepharose column, % of total radioactivity bound; Study A; methionine 25 mg/mL; day 0
[19] = molecular target: ED-B fibronectin antigen protein (recombinant), bound to CNBr activated sepharose 4B (UniProt P02751); assay: ED-B sepharose column, % of total radioactivity bound; Study A; methionine 5 mg/mL; day 1
[20] = molecular target: ED-B fibronectin antigen protein (recombinant), bound to CNBr activated sepharose 4B (UniProt P02751); assay: ED-B sepharose column, % of total radioactivity bound; Study A; maltose 5 mg/mL; day 3
[21] = molecular target: ED-B fibronectin antigen protein (recombinant), bound to CNBr activated sepharose 4B (UniProt P02751); assay: ED-B sepharose column, % of total radioactivity bound; Study B3; human serum albumin 10 mg/mL; day 1
[22] = molecular target: ED-B fibronectin antigen protein (recombinant), bound to CNBr activated sepharose 4B (UniProt P02751); assay: ED-B sepharose column, % of total radioactivity bound; Study B3; human serum albumin 10 mg/mL; day 5
[23] = molecular target: ED-B fibronectin antigen protein (recombinant), bound to CNBr activated sepharose 4B (UniProt P02751); assay: ED-B sepharose column, % of total radioactivity bound; Study A; methionine 5 mg/mL; day 5
[24] = molecular target: ED-B fibronectin antigen protein (recombinant), bound to CNBr activated sepharose 4B (UniProt P02751); assay: ED-B sepharose column, % of total radioactivity bound; Study A; maltose 10 mg/mL; day 0
[25] = molecular target: ED-B fibronectin antigen protein (recombinant), bound to CNBr activated sepharose 4B (UniProt P02751); assay: ED-B sepharose column, % of total radioactivity bound; Study B3; human serum albumin 10 mg/mL; day 2
[26] = molecular target: ED-B fibronectin antigen protein (recombinant), bound to CNBr activated sepharose 4B (UniProt P02751); assay: ED-B sepharose column, % of total radioactivity bound; Study B3; no-excipient control (PBS); day 7
[27] = molecular target: ED-B fibronectin antigen protein (recombinant), bound to CNBr activated sepharose 4B (UniProt P02751); assay: ED-B sepharose column, % of total radioactivity bound; Study A; inositol 5 mg/mL; day 1
[28] = molecular target: ED-B fibronectin antigen protein (recombinant), bound to CNBr activated sepharose 4B (UniProt P02751); assay: ED-B sepharose column, % of total radioactivity bound; Study A; sodium thiosulfate 10 mg/mL; day 1

Chain of UniProt P02751 (P02751 1266-1356 limits assumed): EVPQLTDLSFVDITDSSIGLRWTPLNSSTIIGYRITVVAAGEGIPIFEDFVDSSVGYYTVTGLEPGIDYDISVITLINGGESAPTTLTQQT
Chain of 131I L19-SIP (radioiodinated L19 SIP homodimer) (chain): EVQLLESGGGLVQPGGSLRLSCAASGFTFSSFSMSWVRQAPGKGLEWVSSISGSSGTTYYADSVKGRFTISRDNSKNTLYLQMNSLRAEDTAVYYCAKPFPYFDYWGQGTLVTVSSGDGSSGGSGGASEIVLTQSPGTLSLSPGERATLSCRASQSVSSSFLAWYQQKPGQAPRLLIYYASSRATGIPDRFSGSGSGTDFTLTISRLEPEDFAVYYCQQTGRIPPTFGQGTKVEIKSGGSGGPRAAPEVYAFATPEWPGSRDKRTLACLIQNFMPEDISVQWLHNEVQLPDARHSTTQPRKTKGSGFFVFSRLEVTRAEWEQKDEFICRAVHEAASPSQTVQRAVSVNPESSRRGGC
Chain of 131I L19-SIP (radioiodinated L19 SIP homodimer) (chain): as above

131I L19-SIP (radioiodinated L19 SIP homodimer)
Immunoreactivity (%) [1]: 65.2% | Immunoreactivity (IR) (%) [2]: 59.5% | Immunoreactivity (IR) (%) [3]: 60.7% | Immunoreactivity (%) [4]: 53.7% | Immunoreactivity (%) [5]: 92.3% | Immunoreactivity (%) [6]: 93.6% | Immunoreactivity (IR) (%) [7]: 74.1% | Immunoreactivity (%) [8]: 92.3% | Immunoreactivity (IR) (%) [9]: 61.2% | Immunoreactivity (%) [10]: 85.4% | Immunoreactivity (IR) (%) [11]: 75% | Immunoreactivity (%) [12]: 97.3% | Immunoreactivity (%) [13]: 52.9% | Immunoreactivity (%) [14]: 96.6% | Immunoreactivity (IR) (%) [15]: 59.5% | Immunoreactivity (%) [16]: 53.6% | Immunoreactivity (%) [17]: 66% | Immunoreactivity (%) [18]: 97.2% | Immunoreactivity (%) [19]: 88% | Immunoreactivity (%) [20]: 66.3% | Immunoreactivity (IR) (%) [21]: 78% | Immunoreactivity (IR) (%) [22]: 53% | Immunoreactivity (%) [23]: 62.6% | Immunoreactivity (%) [24]: 92.8% | Immunoreactivity (IR) (%) [25]: 59.9% | Immunoreactivity (IR) (%) [26]: 28.2% | Immunoreactivity (%) [27]: 87.1% | Immunoreactivity (%) [28]: 94.7%
